The values that follow are results of earlier work, collected in paper PMC3405059.

The target in the data set is MSPβ beta chain (Homo sapiens) (UniProt P26927). Briefly: SPR.
Chain of UniProt P26927 (P26927 484-711): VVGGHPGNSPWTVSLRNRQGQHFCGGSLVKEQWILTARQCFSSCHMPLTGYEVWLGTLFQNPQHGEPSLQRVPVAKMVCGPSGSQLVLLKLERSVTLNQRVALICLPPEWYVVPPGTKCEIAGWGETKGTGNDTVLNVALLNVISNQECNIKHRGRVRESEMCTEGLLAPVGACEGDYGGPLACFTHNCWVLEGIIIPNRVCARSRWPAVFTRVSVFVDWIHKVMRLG

In the case of RON ECD (from UniProt Q04912), the Kd is 13 nM.
